Assay results: patent EP1506971A1

Assays:
[1] = target: prokineticin receptor expressed endogenously on M2A7 melanoma cells (ATCC CRL-2500); assay: cell-based or functional assay
[2] = target: prokineticin receptor(s) of guinea pig ileal membrane / ileal smooth muscle (guinea pig); assay: cell-based or functional assay

| EC50, calcium mobilization in M2A7 melanoma cells (FLIPR) [1] [nM] | ED50, contraction of guinea-pig ileum longitudinal muscle [2] [nM] | Substance |
| --- | --- | --- |
| 21 | 0.9 | recombinant human prokineticin 2 (refolded, 6xHis-tagged, unlabeled) (from UniProt Q9HC23 28-129) (ligand) |
| 12 | 0.46 | recombinant human prokineticin 1 (refolded, 6xHis-tagged, unlabeled) (from UniProt P58294 20-105) (ligand) |
